Experimental data: US20160369010A1 (AstraZeneca / MedImmune, published 2016)
Changes are numbered by the printed parent chain.

Columns and labels:
[1] = target: T1, Recombinant human Avi_PCSK9_Flag_His (human, UniProt Q8NBP7 31-692, biotinylated in the HTRF and LDL-R competition assays); experiment: SPR (Biacore 2000)
T1 construct: In-house protein; also called human PCSK9; huPCSK9

[2] = target: human GLP-1 receptor (human, UniProt P43220 24-463); experiment: cell-based or functional assay
[3] = target: T1, Recombinant human Avi_PCSK9_Flag_His; experiment: HTRF epitope competition: unlabelled compound titrated against a DyLight 650-labelled anti-PCSK9 antibody for biotinylated human PCSK9; % specific binding [panel B]
Description: (§1) PCSK9 activity of each peptide-antibody fusions was assessed using Homogenous Time Resolved Fluorescence (HTRF) epitope competition assays.
(§2) For the assay all samples and reagents were prepared in assay buffer containing 1X Phosphate Buffered Saline, 0.1% BSA (Sigma A9576) and 0.4M Potassium Fluoride. Test samples of peptide-antibody fusions or control antibodies were prepared in 384 well polypropylene plates by 3-fold serial dilutions. […] Delta F% was then calculated using the following equation.

[4] = target: T1, Recombinant human Avi_PCSK9_Flag_His; experiment: as above; remark: listed apart in the source
Description: as §1, §2

[5] = target: T1, Recombinant human Avi_PCSK9_Flag_His; experiment: HTRF epitope competition: unlabelled compound titrated against a DyLight 650-labelled anti-PCSK9 antibody for biotinylated human PCSK9; % specific binding [panel C]
Description: as §1, §2

[6] = target: T1, Recombinant human Avi_PCSK9_Flag_His; experiment: binding ELISA on coated human PCSK9 (10 ug/mL), single concentration, detection with cryptate labelled Fc specific anti human IgG
[7] = target: T2, Flag/His tagged human CD86 (in-house) (human, UniProt P42081 24-247, limits assumed); experiment: DELFIA TRF, antigen coated at 10 µg/mL
T2 sequence (looked up): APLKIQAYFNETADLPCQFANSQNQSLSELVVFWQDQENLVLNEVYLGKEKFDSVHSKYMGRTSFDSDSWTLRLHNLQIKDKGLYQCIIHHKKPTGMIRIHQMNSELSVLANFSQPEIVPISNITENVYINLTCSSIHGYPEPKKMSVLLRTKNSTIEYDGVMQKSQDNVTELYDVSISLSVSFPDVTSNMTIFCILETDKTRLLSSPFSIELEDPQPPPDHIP

human GLP-1 receptor, sequence (P43220 24-463): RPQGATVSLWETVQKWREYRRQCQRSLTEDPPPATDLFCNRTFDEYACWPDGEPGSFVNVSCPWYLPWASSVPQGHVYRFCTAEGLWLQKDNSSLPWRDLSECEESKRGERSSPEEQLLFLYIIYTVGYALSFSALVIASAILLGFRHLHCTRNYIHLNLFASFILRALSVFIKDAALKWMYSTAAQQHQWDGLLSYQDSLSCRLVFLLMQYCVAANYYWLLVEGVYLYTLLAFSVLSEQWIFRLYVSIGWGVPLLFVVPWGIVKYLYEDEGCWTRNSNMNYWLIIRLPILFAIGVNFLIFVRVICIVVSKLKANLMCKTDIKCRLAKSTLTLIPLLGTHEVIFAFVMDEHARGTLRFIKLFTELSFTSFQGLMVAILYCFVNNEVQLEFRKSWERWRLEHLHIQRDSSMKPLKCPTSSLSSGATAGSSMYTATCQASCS

B1: PC9#2_GLP-1_VL (antibody, IgG1)
VH: QVQLVQSGAEVKKPGASVKVSCKASGYTFTSYYMHWVRQAPGQGLEWMGEIHPSGGRTNYNEKFKSRVTMTRDTSTSTVYMELSSLRSEDTAVYYCARERPLYASDLWGQGTTVTVSS
VL: HGEGTFTSDVSSYLEEQAAKEFIAWLVKGGGGGGGSGGGGSGGGGSADIQMTQSPSSLSASVGDRVTITCKASQDVHTAVAWYQQKPGKAPKLLIYHASYRYTGVPSRFSGSGSGTDFTFTISSLQPEDIATYYCQQRYSLWRTFGQGTKLEIK
notes: IgG1-TM; also called light chain peptide antibody fusion of PC9#2
[1]
  x change of Kd, PC9#2_GLP1 against PC9#2: 2.7 fold
[2]
  x change (against GLP1-Fc): 2.4 fold
[3]
  IC50 (read off the curve): ~0.4 nM

B2: PC9#2 GLP-1 analogue heavy chain fusion (antibody, IgG1)
VH: HGEGTFTSDVSSYLEEQAAKEFIAWLVKGGGGGGGSGGGGSGGGGSAQVQLVQSGAEVKKPGASVKVSCKASGYTFTSYYMHWVRQAPGQGLEWMGEIHPSGGRTNYNEKFKSRVTMTRDTSTSTVYMELSSLRSEDTAVYYCARERPLYASDLWGQGTTVTVSS
VL: DIQMTQSPSSLSASVGDRVTITCKASQDVHTAVAWYQQKPGKAPKLLIYHASYRYTGVPSRFSGSGSGTDFTFTISSLQPEDIATYYCQQRYSLWRTFGQGTKLEIK
notes: IgG1-TM; descriptive name; also called heavy chain peptide antibody fusion of PC9#2
[4]
  IC50 (read off the curve): ~0.7 nM

B3: PC9#3 GLP-1 analogue heavy chain fusion (antibody, IgG1)
VH: HGEGTFTSDVSSYLEEQAAKEFIAWLVKGGGGGGGSGGGGSGGGGSAEVQLVESGGGLVQPGGSLRLSCAASGFTFNNYAMNWVRQAPGKGLDWVSTISGSGGTTNYADSVKGRFIISRDSSKHTLYLQMNSLRAEDTAVYYCAKDSNWGNFDLWGRGTLVTVSS
VL: not shown
notes: IgG1-TM; descriptive name; also called heavy chain peptide antibody fusion of PC9#3
[5]
  IC50 (read off the curve): ~0.09 nM

B4: PC9#6_DSB7_V19A (antibody, IgG1)
VH: QVQLVQSGAEVKKPGSSVKVSCKASGGTFNSHAISWVRQAPGQGLEWMGGINPILGIANYAQKFQGRVTITADESTSTAYMELSSLRSEDTAVYYCARHYEIQIGRYGMNVYYLMYRFASWGQGTLVTVSS
VL: HGEGTFTSDLSKQMEEECARLFIEWLKNGGPSSGAPPPGCGGGGGSGGGGSGGGGSADIQMTQSPSSLSASVGDRVTITCRASQGIRSALNWYQQKPGKAPKLLIYNGSTLQSGVPSRFSGSGSGTDFTLTISSLQPEDFAVYYCQQFDGDPTFGQGTKVEIK
notes: IgG1-TM
[6]
  binding result: no binding (tested: 100 ug/mL)

B5: HS9_DSB7_V19A (antibody)
VH: B1 VH with H52S, R57S, N59S, E62Q, K65Q, S66G
VL: HGEGTFTSDLSKQMEEECARLFIEWLKNGGPSSGAPPPGCGGGGGSGGGGSGGGGSADIQMTQSPSSLSASVGDRVTITCQASQDVKTAVAWYQQKPGKAPKLLIYSASYRYTGVPSRFSGSGSGTDFTFTISSLQPEDIATYYCQQRYSLWRTFGQGTKLEIK
[7]
  binding result: no binding (tested: 25 µg/mL)
